The term Km denotes the substrate concentration at which the rate is half of its maximum. Broadly, the kcat is the maximal rate divided by the concentration of active sites.

Substrate in the data set: N=C(N)NC(=N)N
Nature of the data set: purified protein. Type of data set: biochemical, Pseudomonas sp. KHPS1. The settings on record: 100 mM potassium phosphate, pH 8.0, 25 °C, 0.5 mM NADH, 0.5 mM 2-oxoglutarate, 1.5 U GDH.

B1: BguH (Pseudomonas sp. KHPS1) (protein)
chain: MSERNHEKGMLLAIEQALKAVASGEPPFGVVILDAQGELVAATHDEVNTRGDMSAHAETLAVRAACQVRGPSLEGCFLYTTCEPCPMCFTTAWLARIGGVVYATTMDEVHKILGDAQRELRVPVTQMNDLSGEPVTLVKGVLRDRCLQLFREHAATLATTK
notes: N-terminal His6 tag (pET28b), E. coli codon-optimised synthetic gene, E. coli BL21(DE3)-RIPL host
As to B1, the Km came to 620 ± 160 µM and the kcat stood at 8.1 ± 0.8 s⁻¹.

These data come from PMC11647477, “Biochemical and genomic evidence for converging metabolic routes of metformin and biguanide breakdown in environmental Pseudomonads” (The Journal of Biological Chemistry, 2024).
